Tests used:
Test in all cases: Kinetic parameters for hydrolysis of maltose and isomaltose
Conditions in all cases: other: At 45°C using 0.05 M NaOAc, pH 4.5
[1] = substrate: OC[C@H]1O[C@H](O[C@H]2[C@H](O)[C@@H](O)[C@H](O)O[C@@H]2CO)[C@H](O)[C@@H](O)[C@@H]1O; assay type: biochemical, Aspergillus niger
Protocol: (§1) 50 microL enzyme diluted in sodium acetate is added,and the activity was determined using the AGU standard method described above. The kinetic parameters: Kcat and Km are measured at 45°C by adding 50 microL enzyme diluted in sodium acetate to preheated 750 microL substrate. Aliquots of 100 microL are removed after 0, 3, 6, 9 and 12 minutes and transferred to 100 microL 0.4M Sodium hydroxide to stop the reaction. A blank is included.
(§2) 20 microL is transferred to a Micro titre plates and 200 microL GOD-Perid solution is added. Absorbance is measured at 650 nm after 30 minutes incubation at room temperature. Glucose is used as standard, and the specific activity is calculated as kcat (sec. ^-1)
(§3) Kinetic Parameters for Hydrolysis of Maltose and Isomaltose by Aspergillus niger AMG and the recombinant Talaromyces emersonii AMG expressed in A. niger.

[2] = substrate: OC[C@H]1O[C@H](OC[C@H]2OC(O)[C@H](O)[C@@H](O)[C@@H]2O)[C@H](O)[C@@H](O)[C@@H]1O; assay type: biochemical, Aspergillus niger
Protocol: as §1, §2, §3

[3] = substrate: OC[C@H]1O[C@H](O[C@H]2[C@H](O)[C@@H](O)[C@H](O)O[C@@H]2CO)[C@H](O)[C@@H](O)[C@@H]1O; assay type: biochemical, Talaromyces emersonii
Protocol: as §1, §2, §3

[4] = substrate: OC[C@H]1O[C@H](OC[C@H]2OC(O)[C@H](O)[C@@H](O)[C@@H]2O)[C@H](O)[C@@H](O)[C@@H]1O; assay type: biochemical, Talaromyces emersonii
Protocol: as §1, §2, §3

Row | Protein | Km [1] [mM] | kcat [1] [s⁻¹] | kcat/Km [1] [s⁻¹ mM⁻¹] | Km [2] [mM] | kcat [2] [s⁻¹] | kcat/Km [2] [s⁻¹ mM⁻¹] | Km [3] [mM] | kcat [3] [s⁻¹] | kcat/Km [3] [s⁻¹ mM⁻¹] | Km [4] [mM] | kcat [4] [s⁻¹] | kcat/Km [4] [s⁻¹ mM⁻¹]
1 | Aspergillus niger AMG (glucoamylase G1), SEQ ID NO: 9 (Aspergillus niger) (protein) ATLDSWLSNEATVARTAILNNIGADGAWVSGADSGIVVASPSTDNPDYFYTWTRDSGLVLKTLVDLFRNGDTSLLSTIENYISAQAIVQGISNPSGDLSSGAGLGEPKFNVDETAYTGSWGRPQRDGPALRATAMIGFGQWLLDNGYTSTATDIVWPLVRNDLSYVAQYWNQTGYDLWEEVNGSSFFTIAVQHRALVEGSAFATAVGSSCSWCDSQAPEILCYLQSFWTGSFILANFDSSRSGKDANTLLGSIHTFDPEAACDDSTFQPCSPRALANHKEVVDSFRSIYTLNDGLSDSEAVAVGRYPEDTYYNGNPWFLCTLAAAEQLYDALYQWDKQGSLEVTDVSLDFFKALYSDAATGTYSSSSSTYSSIVDAVKTFADGFVSIVETHAASNGSMSEQYDKSDGEQLSARDLTWSYAALLTANNRRNSVVPASWGETSASSVPGTCAATSAIGTYSSVTVTSWPSIVATGGTTTTATPTGSGSVTSTSKTTATASKTSTSTSSTSCTTPTAVAVTFDLTATTTYGENIYLVGSISQLGDWETSDGIALSADKYTSSDPLWYVTVTLPAGESFEYKFIRIESDDSVEWESDPNREYTVPQACGTSTATVTDTWR | 1.2 | 10.7 | 8.8 | 19.8 | 0.41 | 0.021 | – | – | – | – | – | –
2 | recombinant Talaromyces emersonii AMG (glucoamylase) expressed in A. niger, SEQ ID NO: 7 (Rasamsonia emersonii) (protein) ATGSLDSFLATETPIALQGVLNNIGPNGADVAGASAGIVVASPSRSDPNYFYSWTRDAALTAKYLVDAFIAGNKDLEQTIQQYISAQAKVQTISNPSGDLSTGGLGEPKFNVNETAFTGPWGRPQRDGPALRATALIAYANYLIDNGEASTADEIIWPIVQNDLSYITQYWNSSTFDLWEEVEGSSFFTTAVQHRALVEGNALATRLNHTCSNCVSQAPQVLCFLQSYWTGSYVLANFGGSGRSGKDVNSILGSIHTFDPAGGCDDSTFQPCSARALANHKVVTDSFRSIYAINSGIAEGSAVAVGRYPEDVYQGGNPWYLATAAAAEQLYDAIYQWKKIGSISITDVSLPFFQDIYPSAAVGTYNSGSTTFNDIISAVQTYGDGYLSIVEKYTPSDGSLTEQFSRTDGTPLSASALTWSYASLLTASARRQSVVPASWGESSASSVPAVCSATSATGPYSTATNTVWPSSGSGSSTTTSSAPCTTPTSVAVTFDEIVSTSYGETIYLAGSIPELGNWSTASAIPLRADAYTNSNPLWYVTVNLPPGTSFEYKFFKNQTDGTIVWEDDPNRSYTVPAYCGQTTAILDDSWQ | – | – | – | – | – | – | 3.8 | 30.6 | 8.1 | 53.6 | 2.70 | 0.050

— patent publication EP1032654B1, “THERMOSTABLE GLUCOAMYLASE” (Novozymes A/S, priority 1997, dated 1999)
